Positions count from the first letter of the chain named. Numbers in names are those of the source. Blank lines part the entries; values can stand above or below the binder they belong to.
How the values were obtained:
[1] = target: T1, recombinant human sPLA2-GIB (mature secreted group IB pancreatic phospholipase A2) (human, UniProt P04054 23-148); assay: SPR (BIAcore 2000), antibody captured, antigen in solution
T1 construct: also called sPLA2-IB; PLA2-GIB mature form
Procedure: (§1) The affinity constants (KD) of the pro-sPLA2-GIB and sPLA2-GIB binding to the #2B, #2B1 and #2B2 antibodies were determined by surface kinetics on a real-time biosensor surface plasmon resonance assay (BIAcore™). More specifically, the affinity of the antibodies for human pro-sPLA2-IB and sPLA2-IB was measured using a BIAcore® 2000. The antibody was captured on an anti-mouse IgG surface and exposed to various concentrations of recombinant pro-sPLA2-IB and sPLA2-IB protein. Kinetic analysis using BIAevaluation™ software was performed to obtain the association and dissociation rate constants.
as §1, with “to” for “to the #2B,”, “#2B2” for “#2B2 antibodies”, “(BIAcore™).” for “(BIAcore™). More specifically, the affinity of the antibodies for human pro-sPLA2-IB and sPLA2-IB was measured using a BIAcore® 2000.”, “constants (Table 7).” for “constants.”

[2] = target: T2, recombinant human pro-sPLA2-GIB (human, UniProt P04054 16-148); assay: as above
T2 construct: also called pro-sPLA2-IB; proPLA2-GIB
T2 sequence (P04054 16-148): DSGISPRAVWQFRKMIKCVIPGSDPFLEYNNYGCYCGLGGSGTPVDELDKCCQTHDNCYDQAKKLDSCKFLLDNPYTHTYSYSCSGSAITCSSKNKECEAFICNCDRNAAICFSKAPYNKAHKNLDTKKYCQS
Procedure: as §1
as §1, with “to” for “to the #2B,”, “#2B2” for “#2B2 antibodies”, “(BIAcore™).” for “(BIAcore™). More specifically, the affinity of the antibodies for human pro-sPLA2-IB and sPLA2-IB was measured using a BIAcore® 2000.”, “constants (Table 7).” for “constants.”

human FcγRIIIA(V176) [3] = target: T3, human FcγRIIIA(V176) (human, UniProt P08637 17-254); assay: flow cytometry, monomeric IgG (100 ng/mL) on CHO cells expressing the receptor
T3 construct: whole, on cells; also called hFcγRIIIA(V176)
T3 sequence (P08637 17-254 F176V limits assumed): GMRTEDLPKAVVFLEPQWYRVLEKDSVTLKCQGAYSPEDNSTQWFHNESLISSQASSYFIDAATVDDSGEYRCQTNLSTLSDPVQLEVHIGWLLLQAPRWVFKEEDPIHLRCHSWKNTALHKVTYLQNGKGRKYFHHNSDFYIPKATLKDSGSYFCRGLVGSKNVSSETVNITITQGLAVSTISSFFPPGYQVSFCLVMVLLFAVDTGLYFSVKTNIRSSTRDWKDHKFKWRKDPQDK
Procedure: (§2) Monomeric IgG binding was tested by incubating the #2B, #2B1 and #2B2 antibodies (100 ng/mL) with 1×10⁵ CHO cells stably expressing human FcγRs for 30 min on ice. The cells were then washed, detached, fixed, and analyzed by flow cytometry (FACSCalibur; BD Biosciences).
(§3) The binding of monomeric #2B, #2B1 and #2B2 to human FcγRs was tested by flow cytometry by incubating the mAbs with CHO cells stably expressing human FcγRI, FcγRIIA (H131), FcγRIIA(R131), FcγRIIB, FcγRIIIA(F176), FcγRIIIA(V176), FcγRIIIB(NA1), FcγRIIIB(NA2), and FcγRIIIB(SH), (REF P. Bruhns). As presented in FIG. 9, #2B is binding to hFcγRI and hFcγRIIIA(V176) only, whereas no monomeric binding of #2B1 and #2B2 to all tested hFcγRs was observed. Antibody-antigen immune complex was tested by first incubating the mAb with the antigen and then, incubating the immune complexes formed with CHO cells stably expressing human FcγRs. The immune complexe of #2B is binding to all tested hFcγRs, except hFcγRIIB (FIG. 10). Weak binding is observed for immune complex of #2B1 to hFcγRIIIA(V176) (data not shown), whereas no immune complex binding of #2B2 to any tested hFcγRs (data not shown).

human FcγRI [4] = target: T4, human FcγRI (human, UniProt P12314 16-374); assay: as above
T4 construct: whole, on cells; also called hFcγRI
T4 sequence (P12314 16-374): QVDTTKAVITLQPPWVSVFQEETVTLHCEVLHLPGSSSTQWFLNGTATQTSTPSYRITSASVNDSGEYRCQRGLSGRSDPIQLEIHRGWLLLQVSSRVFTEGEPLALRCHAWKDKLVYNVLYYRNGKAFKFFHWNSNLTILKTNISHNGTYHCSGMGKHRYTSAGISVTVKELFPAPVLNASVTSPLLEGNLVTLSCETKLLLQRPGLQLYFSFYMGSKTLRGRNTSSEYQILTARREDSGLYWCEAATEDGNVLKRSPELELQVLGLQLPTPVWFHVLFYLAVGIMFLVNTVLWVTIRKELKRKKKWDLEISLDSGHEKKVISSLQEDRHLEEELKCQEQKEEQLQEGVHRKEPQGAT
Procedure: as §2, §3

[5] = target: T1, recombinant human sPLA2-GIB (mature …); assay: competitive ELISA: constant antibody premixed with dilutions of soluble antigen, free antibody caught on antigen-coated plate
Procedure: (§4) Binding affinities of the humanized antibodies to pro-sPLA2-GIB and sPLA2-GIB were measured by plate-based competition immunoassay. For the competition ELISA, briefly, constant amounts of antibody at different levels were premixed with serial dilutions of antigen protein, human sPLA2-GIB or pro-sPLA2-GIB, ranging from 0 to 10 μg/ml, and incubated for two hours at room temperature to reach pseudo-binding equilibrium between the antibody and antigen. These solutions were then transferred to 96-well sPLA2-GIB or pro-sPLA2-GIB pre-coated plates to allow the free-antibody in the mixtures to bind to plate-coated sPLA2-GIB or pro-sPLA2-GIB. The plates were typically coated with 30 to 100 ng of human sPLA2-GIB or pro-sPLA2-GIB protein in PBS solution overnight at 4° C. followed by BSA nonspecific blocking. After washing off excess antibody in solution, plate-bound antibodies were detected with an HRP-conjugated goat anti-mouse IgG or IgA polyclonal antibody reagent and developed using colorimetric substrate. The dependency of the signals on the concentrations of antigen in solution was analyzed with a 4-parameter fit analysis using Prism™ software (Graph Pad) and reported as IC50.
(§5) The respective binding affinities of the humanized antibodies to human pro-sPLA2-GIB and human sPLA2-GIB were measured by plate-based competition immunoassay. Briefly, constant amounts of antibody at different levels were premixed with serial dilutions of antigen proteins to reach pseudo-binding equilibrium between the antibody and antigen. These solutions were then transferred to antigen pre-coated plates to allow the free-antibody in the mixtures to bind to plate-coated sPLA2-GIB or pro-sPLA2-GIB. Plate-bound antibodies were detected with an HRP-conjugated polyclonal antibody. Data were fitted with a 4PL logistic non-linear regression model and the relative IC50 values were estimated from the model (Table 4).

[6] = target: T2, recombinant human pro-sPLA2-GIB; assay: as above
Procedure: as §4, §5

[7] = target: T1, recombinant human sPLA2-GIB (mature …); assay: cell-based or functional assay
human FcγRIIB = target: T5, human FcγRIIB (human, UniProt P31994 43-310); assay: flow cytometry, monomeric IgG on CHO cells expressing the receptor
T5 construct: whole, on cells; also called hFcγRIIB
T5 sequence (looked up): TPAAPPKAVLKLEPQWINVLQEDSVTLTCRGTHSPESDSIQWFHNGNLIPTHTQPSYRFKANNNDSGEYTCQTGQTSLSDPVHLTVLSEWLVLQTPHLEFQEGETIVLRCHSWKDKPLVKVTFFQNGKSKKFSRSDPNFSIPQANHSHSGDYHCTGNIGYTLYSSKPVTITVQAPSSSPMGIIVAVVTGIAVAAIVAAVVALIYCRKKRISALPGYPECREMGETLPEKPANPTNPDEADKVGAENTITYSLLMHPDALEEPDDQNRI
Procedure: as §2, §3

human FcγRIIA (H131) = target: T6, human FcγRIIA (H131) (human, UniProt P12318 34-317); assay: as above
T6 construct: whole, on cells; Allelic variant with His at 131 (mature numbering as printed)
T6 sequence (looked up): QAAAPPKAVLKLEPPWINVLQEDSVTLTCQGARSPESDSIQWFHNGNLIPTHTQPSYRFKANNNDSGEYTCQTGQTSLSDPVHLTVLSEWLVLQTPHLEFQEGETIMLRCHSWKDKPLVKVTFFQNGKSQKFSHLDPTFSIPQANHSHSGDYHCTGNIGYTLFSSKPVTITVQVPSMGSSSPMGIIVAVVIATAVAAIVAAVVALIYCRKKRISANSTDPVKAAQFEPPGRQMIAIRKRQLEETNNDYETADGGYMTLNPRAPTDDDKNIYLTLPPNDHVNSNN
Procedure: as §2, §3

human FcγRIIIB(NA1) = target: T7, human FcγRIIIB(NA1) (human, UniProt O75015 17-200); assay: as above
T7 construct: whole, on cells
T7 sequence (O75015 other isoform, or with tags, fused parts or gaps): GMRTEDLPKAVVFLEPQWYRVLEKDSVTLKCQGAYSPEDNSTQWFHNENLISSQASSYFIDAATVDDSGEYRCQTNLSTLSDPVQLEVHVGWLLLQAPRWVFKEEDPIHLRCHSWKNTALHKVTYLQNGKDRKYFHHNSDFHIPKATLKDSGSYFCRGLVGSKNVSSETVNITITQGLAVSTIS
Procedure: as §2, §3

human FcγRIIIB(SH) = target: T8, human FcγRIIIB(SH) (human, UniProt O75015 17-200); assay: as above
T8 construct: whole, on cells
T8 sequence (O75015 17-200 N65S/A78D): as the sequence (O75015 other isoform, or with tags, fused parts or gaps) above, with R20S, N49S, A62D, D66N, V90I counted along it
Procedure: as §2, §3

human FcγRIIIA(V176) [8] = target: T3, human FcγRIIIA(V176); assay: as above
Procedure: as §2, §3

human FcγRIIIA(F176) = target: T9, human FcγRIIIA(F176) (human, UniProt P08637 17-254); assay: as above
T9 construct: whole, on cells
T9 sequence (P08637 17-254): as the sequence (P08637 17-254 F176V limits assumed) above, with V160F counted along it
Procedure: as §2, §3

human FcγRIIIB(NA2) = target: T10, human FcγRIIIB(NA2) (human, UniProt O75015 17-200); assay: as above
T10 construct: whole, on cells
T10 sequence (O75015 17-200 N65S): as the sequence (O75015 other isoform, or with tags, fused parts or gaps) above, with R20S, N49S, D66N, V90I counted along it
Procedure: as §2, §3

human FcγRI [9] = target: T4, human FcγRI; assay: as above
Procedure: as §2, §3

human FcγRIIA(R131) = target: T11, human FcγRIIA(R131) (human, UniProt P12318 34-317); assay: as above
T11 construct: whole, on cells; Allelic variant with Arg at 131 (so in the source)
T11 sequence (looked up): T6 sequence (looked up) with H134R
Procedure: as §2, §3

T1 sequence (P04054 23-148): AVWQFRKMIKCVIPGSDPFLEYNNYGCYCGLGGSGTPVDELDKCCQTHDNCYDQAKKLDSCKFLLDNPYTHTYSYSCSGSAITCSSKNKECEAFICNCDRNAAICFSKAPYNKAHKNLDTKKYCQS

Kd [1]: 0.786 nM
koff [1]: 0.00225 s⁻¹
kon [1]: 2.89e+06 M⁻¹ s⁻¹
t½ [1]: 5.1 min
Kd [2]: 785 nM
koff [2]: 0.142 s⁻¹
kon [2]: 176000 M⁻¹ s⁻¹
t½ [2]: 0.08 min
binding result (human FcγRIIIA(V176) [3]): binds
binding result (human FcγRI [4]): binds
IC50 [5]: 2.3 nM
IC50 [6]: 341 nM
EC50 for the restoration of the sPLA2-IB effect on IL-7 induced phosphoSTAT5 nuclear translocation in human CD4 T cells (75 nM sPLA2-GIB) [7]: 3.7 ng/mL
B1: humanized antibody #2B (antibody, human IgG1, kappa)
heavy: not shown
light: EIVMTQSPATLSVSPGERATLSCKASQDVSTAVAWYQQKPGQAPRLLIYWASTRHTGIPARFSGSRSGTEYTLTISSLQSEDFAVYYCQQDYSTPPTFGGGTKVEIKRTVAAPSVFIFPPSDEQLKSGTASVVCLLNNFYPREAKVQWKVDNALQSGNSQESVTEQDSKDSTYSLSSTLTLSKADYEKHKVYACEVTHQGLSSPVTKSFNRGEC
notes: Humanized 14G9, IGHV1-46*01 version B heavy and IGKV3-15*01 version B light; also called Ab #2B; mAb #2B; copies: 2 + 2

Kd [1]: 0.796 nM
koff [1]: 0.00247 s⁻¹
kon [1]: 3.02e+06 M⁻¹ s⁻¹
t½ [1]: 4.7 min
Kd [2]: 880 nM
koff [2]: 0.146 s⁻¹
kon [2]: 164000 M⁻¹ s⁻¹
t½ [2]: 0.079 min
binding result (human FcγRIIB): no binding (tested: 100 ng/mL)
binding result (human FcγRIIA (H131)): no binding (tested: 100 ng/mL)
binding result (human FcγRIIIB(NA1)): no binding (tested: 100 ng/mL)
binding result (human FcγRIIIB(SH)): no binding (tested: 100 ng/mL)
binding result (human FcγRIIIA(V176) [8]): no binding (tested: 100 ng/mL)
binding result (human FcγRIIIA(F176)): no binding (tested: 100 ng/mL)
binding result (human FcγRIIIB(NA2)): no binding (tested: 100 ng/mL)
binding result (human FcγRI [9]): no binding (tested: 100 ng/mL)
binding result (human FcγRIIA(R131)): no binding (tested: 100 ng/mL)
B2: humanized antibody #2B2 (mutations L234A, L235E and P331S) (antibody, human IgG1, kappa)
heavy: QVQLVQSGAEVKKPGASVKVSCKASGYTFTNYWIHWVRQAPGQGLEWIGNIDPSDTRTHYNQKFKDRATLTVDKSTSTAYMELSSLRSEDTAVYYCARQTLYYEALDYWGQGTLVTVSSASTKGPSVFPLAPSSKSTSGGTAALGCLVKDYFPEPVTVSWNSGALTSGVHTFPAVLQSSGLYSLSSVVTVPSSSLGTQTYICNVNHKPSNTKVDKRVEPKSCDKTHTCPPCPAPEAEGGPSVFLFPPKPKDTLMISRTPEVTCVVVDVSHEDPEVKFNWYVDGVEVHNAKTKPREEQYNSTYRVVSVLTVLHQDWLNGKEYKCKVSNKALPASIEKTISKAKGQPREPQVYTLPPSREEMTKNQVSLTCLVKGFYPSDIAVEWESNGQPENNYKTTPPVLDSDGSFFLYSKLTVDKSRWQQGNVFSCSVMHEALHNHYTQKSLSLSPGK
light: B1 light
notes: #2B with L234A, L235E and P331S in the heavy chain constant region; also called Ab #2B2; #2B2 humanized mAb; copies: 2 + 2
